Results published in patent publication US11441131B2, “Heparosan synthases and use thereof for saccharide synthesis” (The Regents of the University of California, priority 2019, dated 2022).
Residue numbers refer to the chain shown, from its start. Names and notes keep the numbering of the source.

How the values were obtained:
[1] = Relative activity comparison with acceptor GlcAβProNHFmoc (O1) and UDP-GlcNAc; type: biochemical; conditions: for GlcNAcα1-4GlcAβProNHFmoc (%): percentage conversion, 30 min, HPLC
Description: (§1) Reactions were stopped by heating reaction mixtures at 70° C. for 10 min, followed by incubation on ice for 30 min and centrifugation at 11,337 g for 15 min.

[2] = Relative activity comparison with acceptor GlcNAcαProNHFmoc and UDP-GlcA; type: biochemical; conditions: enzyme 1.5 mg/mL; percentage conversion, 30 min, HPLC
Description: as §1

[3] = Effect of UDP concentration on reverse glycosylation activity; type: biochemical; conditions: O6 1 mM, enzyme 15 μM
Description: Reactions were stopped by heating reaction mixtures at 70° C. for 10 min followed by incubation on ice for 30 min, and centrifugation at 11,337 g for 15 min. Supernatants were analyzed using an Infinity 1290 II HPLC equipped with 1260 Infinity II Diode Array Detector WR (monitored at 254 nm, Agilent Technologies, CA). An AdvanceBio Glycan Mapping column (1.8 μm particle, 2.1×150 mm, Agilent Technologies, CA) was used with a gradient (13 min) of 0.5 mL/min for 90% to 70% acetonitrile and a solution of water with 0.1% TFA for analysis.

[4] = Protein expression and purification; set-up: species or system E. coli BL21 (DE3); conditions: per L culture
Description: Protein expression and purification. The plasmid-bearing E. coli BL21(DE3) cells were cultured in 1 L of LB-rich media (10 g/L tryptone, 5 g/L yeast extract and 10 g/L NaCl) supplemented with ampicillin (100 μg/mL). Expression of the target protein was achieved by inducing the E. coli culture with 0.1 mM of isopropyl-1-thio-β-D-galactopyranoside (IPTG) when OD600 nm reached 0.8-1.0, followed by incubating at 20° C. for 20 h with shaking at 250 rpm in a C25KC incubator shaker (New Brunswick Scientific, Edison, N.J.). Histidine-tagged target proteins were purified from cell lysate. To obtain the cell lysate, cell pellet harvested by centrifugation at 2,795 g for 50 min was resuspended (25 mL/L cell culture) in lysis buffer (Tris-HCl, 100 mM, pH 8.0 with 0.1% Triton X-100). Sonication protocol was 2 s (sonication)/3 s (rest) for a total of 6 min on ice. Lysed cells were centrifuged at 5,000 g for 50 min and the supernatant (lysate) was collected. Purification of histidine-tagged proteins from the lysate was achieved using a Ni′-resin column. The column was pre-equilibrated with 10 column volumes of binding buffer (5 mM imidazole, 0.5 M NaCl, 50 mM Tris-HCl, pH 7.5). The lysate was then loaded, and the column was washed with 10 column volumes of binding buffer and 10 column volumes of washing buffer (16 mM imidazole, 0.5 M NaCl, 50 mM Tris-HCl, pH 7.5). The target protein was eluted with Tris-HCl buffer (50 mM, pH 7.5) containing imidazole (200 mM) and NaCl (0.5 M). The fractions containing the purified enzymes were collected, and stored at 4° C.

[5] = Behaviour during dialysis; type: physicochemical
Isoelectric point (pI) = type: physicochemical
[6] = α1-4-GlcNAcT activity comparison of His6-Δ80PmHS2 and its D222N and D500N mutants; type: biochemical
Description: Reactions were stopped by heating reaction mixture at 70° C. for 10 min, followed by incubation on ice for 30 min and centrifugation at 11,337 g for 15 min. Supernatants were analyzed similarly to that described above for […].

[7] = β1-4-GlcAT activity comparison of His6-Δ80PmHS2 and its D222N and D500N mutants; type: biochemical
Description: Reactions were stopped by heating reaction mixtures at 70° C. for 10 min, followed by incubation on ice for 30 min and centrifugation at 11,337 g for 15 min. Supernatants were analyzed similarly to that described above for the coupled-enzyme reverse glycosylation assay.

[8] = Reverse glycosylation assay mimicking synthetic conditions; type: biochemical; conditions: 30 mM UDP, conditions mimicking synthetic reactions
Description: Reactions were stopped by heating reaction mixtures at 70° C. for 10 min, followed by incubation on ice for 30 min and centrifugation at 11,337 g for 15 min. Supernatants were analyzed similarly to that described above for time-course reverse glycosylation assays.

[9] = α1-4GlcNAc-transferase activity of designed mutants; type: biochemical

B1: His6-PmHS2: N-terminal His6-tagged wild-type Pasteurella multocida heparosan synthase 2 (SEQ ID NO:6) (protein)
chain: MGSSHHHHHHSSGLVPRGSHMKGKKEMTQKQMTKNPPQHEKENELNTFQNKIDSLKTTLNKDIISQQTLLAKQDSKHPLSESLENENKLLLKQLQLVLQEFEKIYTYNQALEAKLEKDKQTTSITDLYNEVAKSDLGLVKETNSANPLVSIIMTSHNTAQFIEASINSLLLQTYKNIEIIIVDDDSSDNTFEIASRIANTTSKVRVFRLNSNLGTYFAKNTGILKSKGDIIFFQDSDDVCHHERIERCVNILLANKETIAVRCAYSRLAPETQHIIKVNNMDYRLGFITLGMHRKVFQEIGFFNCTTKGSDDEFFHRIAKYYGKEKIKNLLLPLYYNTMRENSLFTDMVEWIDNHNIIQKMSDTRQHYATLFQAMHNETASHDFKNLFQFPRIYDALPVPQEMSKLSNPKIPVYINICSIPSRIAQLQRIIGILKNQCDHFHIYLDGYVEIPDFIKNLGNKATVVHCKDKDNSIRDNGKFILLEELIEKNQDGYYITCDDDIIYPSDYINTMIKKLNEYDDKAVIGLHGILFPSRMTKYFSADRLVYSFYKPLEKDKAVNVLGTGTVSFRVSLFNQFSLSDFTHSGMADIYFSLLCKKNNILQICISRPANWLTEDNRDSETLYHQYRDNDEQQTQLIMENGPWGYSSIYPLVKNHPKFTDLIPCLPFYFL
modifications: N-terminal His6 tag
efficiency of GlcAβProNHFmoc (O1) over GlcNAcαProNHFmoc as substrate in disaccharide production [1]: 157 fold | GlcNAcα1-4GlcAβProNHFmoc (%) ([1]; enzyme 0.06 mg/mL): 64.5 ± 1.0% | GlcNAcα1-4GlcAβProNHFmoc (%) ([1]; enzyme 1.5 mg/mL): 100% | GlcAβ1-4GlcNAcαProNHFmoc (%) [2]: 10.3 ± 0.3% | O6 (%) ([3]; UDP 0 (nM)): 100% | O1 (%) ([3]; UDP 1 (nM)): 3.3% | O2 (%) ([3]; UDP 1 (nM)): 2.7% | O3 (%) ([3]; UDP 1 (nM)): 1.4% | O4 (%) ([3]; UDP 1 (nM)): 9.6% | O5 (%) ([3]; UDP 1 (nM)): 3.0% | O6 (%) ([3]; UDP 1 (nM)): 64.2% | O8 (%) ([3]; UDP 1 (nM)): 13.5% | O10 (%) ([3]; UDP 1 (nM)): 1.9% | O1 (%) ([3]; UDP 5 (nM)): 3.9% | O2 (%) ([3]; UDP 5 (nM)): 5.5% | O3 (%) ([3]; UDP 5 (nM)): 1.1% | O4 (%) ([3]; UDP 5 (nM)): 8.8% | O5 (%) ([3]; UDP 5 (nM)): 4.8% | O6 (%) ([3]; UDP 5 (nM)): 52.3% | O7 (%) ([3]; UDP 5 (nM)): 0.4% | O8 (%) ([3]; UDP 5 (nM)): 16.0% | O10 (%) ([3]; UDP 5 (nM)): 5.7% | O12 (%) ([3]; UDP 5 (nM)): 0.7% | O1 (%) ([3]; UDP 10 (nM)): 3.1% | O2 (%) ([3]; UDP 10 (nM)): 9.0% | O3 (%) ([3]; UDP 10 (nM)): 0.6% | O4 (%) ([3]; UDP 10 (nM)): 17.7% | O5 (%) ([3]; UDP 10 (nM)): 9.1% | O6 (%) ([3]; UDP 10 (nM)): 36.2% | O7 (%) ([3]; UDP 10 (nM)): 1.1% | O8 (%) ([3]; UDP 10 (nM)): 16.3% | O9 (%) ([3]; UDP 10 (nM)): 0.4% | O10 (%) ([3]; UDP 10 (nM)): 4.6% | O12 (%) ([3]; UDP 10 (nM)): 1.3% | expression level [4]: 17 to 20 mg/L | behaviour during dialysis [5]: precipitated easily during dialysis | pI (Isoelectric point (pI)): 6.83

B2: D500N (protein)
chain: MGSSHHHHHHSFEKIYTYNQALEAKLEKDKQTTSITDLYNEVAKSDLGLVKETNSANPLVSIIMTSHNTAQFIEASINSLLLQTYKNIEIIIVDDDSSDNTFEIASRIANTTSKVRVFRLNSNLGTYFAKNTGILKSKGDIIFFQDSDDVCHHERIERCVNILLANKETIAVRCAYSRLAPETQHIIKVNNMDYRLGFITLGMHRKVFQEIGFFNCTTKGSDDEFFHRIAKYYGKEKIKNLLLPLYYNTMRENSLFTDMVEWIDNHNIIQKMSDTRQHYATLFQAMHNETASHDFKNLFQFPRIYDALPVPQEMSKLSNPKIPVYINICSIPSRIAQLQRIIGILKNQCDHFHIYLDGYVEIPDFIKNLGNKATVVHCKDKDNSIRDNGKFILLEELIEKNQDGYYITCDDDIIYPSDYINTMIKKLNEYDDKAVIGLHGILFPSRMTKYFSADRLVYSFYKPLEKDKAVNVLGTGTVSFRVSLFNQFSLSDFTHSGMANIYFSLLCKKNNILQICISRPANWLTEDNRDSETLYHQYRDNDEQQTQLIMENGPWGYSSIYPLVKNHPKFTDLIPCLPFYFL
decrease of α1-4-GlcNAcT activity relative to His6-Δ80PmHS2 [6]: 548 fold | β1-4-GlcAT activity relative to His6-Δ80PmHS2 [7]: retained | reverse glycosylation oligosaccharide products [8]: no reverse glycosylation oligosaccharide products were observed | expression level [4]: 60 to 70 mg/L

B3: T475A (protein)
chain: B2 chain with T475A, N500D
α1-4GlcNAc-transferase activity [9]: retained

B4: T477A (protein)
chain: B2 chain with T477A, N500D
α1-4GlcNAc-transferase activity [9]: retained
